# Test system: Escherichia coli TOP10
# Test: shrunken log2 fold change of peptide-encoding DNA abundance (4.5 h post-induction vs induction); higher = less antimicrobial activity (less host growth inhibition)
# Details: time post-induction: 4.5 h; library: site-saturation at positions 5, 18, 19, 20
# 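Note: peptides expressed intracellularly from a pBAD plasmid library in pooled LB shake-flask culture, induced with 0.3% L-arabinose, DNA abundance read by NGS, three biological replicates, DESeq2 with apeglm shrinkage.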
row,Sequence,shrunken log2 fold change
1,RRIRFRPPRLPRPRPRPPVEPRP,0.143
2,RRIRMRPPRLPRPRPRPWGDPRP,0.0652
3,RRIRWRPPRLPRPRPRPDTIPRP,-0.019
4,RRIRARPPRLPRPRPRPCEAPRP,0.762
5,RRIRERPPRLPRPRPRPIHAPRP,0.0259
6,RRIRLRPPRLPRPRPRPFKNPRP,-0.499
7,RRIRLRPPRLPRPRPRPKFLPRP,-0.173
8,RRIRSRPPRLPRPRPRPHLAPRP,-0.0617
9,RRIRIRPPRLPRPRPRPKTKPRP,-0.0929
10,RRIRYRPPRLPRPRPRPIQCPRP,-0.0422
11,RRIRHRPPRLPRPRPRPADTPRP,-0.406
12,RRIRNRPPRLPRPRPRPCHAPRP,-0.37
13,RRIRVRPPRLPRPRPRPVPIPRP,-0.0742
14,RRIRVRPPRLPRPRPRPCMFPRP,-0.559
15,RRIRQRPPRLPRPRPRPHNSPRP,-0.596
16,RRIRARPPRLPRPRPRPRADPRP,0.924
17,RRIRDRPPRLPRPRPRPHADPRP,-0.0841
18,RRIRVRPPRLPRPRPRPFIEPRP,-0.468
19,RRIRWRPPRLPRPRPRPMWDPRP,0.157
20,RRIRFRPPRLPRPRPRPYSCPRP,-0.388
21,RRIRMRPPRLPRPRPRPSDNPRP,0.0409
22,RRIRFRPPRLPRPRPRPNMMPRP,-0.444
23,RRIRPRPPRLPRPRPRPVGCPRP,1.56
24,RRIRDRPPRLPRPRPRPICLPRP,0.0829
25,RRIRPRPPRLPRPRPRPEPCPRP,0.215

row,Sequence,shrunken log2 fold change
1,RRIRSRPPRLPRPRPRPEFTPRP,0.171
2,RRIRPRPPRLPRPRPRPWTLPRP,0.104
3,RRIRQRPPRLPRPRPRPPQGPRP,0.434
4,RRIRHRPPRLPRPRPRPTIKPRP,-0.304
5,RRIRGRPPRLPRPRPRPSGCPRP,0.477
6,RRIRPRPPRLPRPRPRPFNDPRP,0.0502
7,RRIRTRPPRLPRPRPRPHPWPRP,-0.0609
8,RRIRRRPPRLPRPRPRPFCTPRP,-0.13
9,RRIRARPPRLPRPRPRPHGPPRP,0.321
10,RRIRHRPPRLPRPRPRPESDPRP,-0.227
11,RRIRNRPPRLPRPRPRPNSCPRP,-0.137
12,RRIRARPPRLPRPRPRPHGRPRP,0.0226
13,RRIRDRPPRLPRPRPRPTRHPRP,0.42
14,RRIRHRPPRLPRPRPRPHGFPRP,-0.0127
15,RRIRGRPPRLPRPRPRPSSHPRP,-0.0172
16,RRIRARPPRLPRPRPRPGSSPRP,-0.112
17,RRIRQRPPRLPRPRPRPMSKPRP,-0.0682
18,RRIRLRPPRLPRPRPRPQPIPRP,0.0892
19,RRIRYRPPRLPRPRPRPEFDPRP,-0.0306
20,RRIRMRPPRLPRPRPRPDATPRP,3.93
21,RRIRQRPPRLPRPRPRPPSAPRP,0.5
22,RRIRTRPPRLPRPRPRPHGDPRP,-0.146
23,RRIRWRPPRLPRPRPRPTGLPRP,0.0239
24,RRIRNRPPRLPRPRPRPFMEPRP,-0.167
25,RRIRKRPPRLPRPRPRPHGRPRP,0.239
